Experimental findings from patent publication US20190185575A1 (ONCOTHERAPY SCIENCE, published 2019) are described below.

This assay deals with T1, human MELK protein (Maternal Embryonic Leucine zipper Kinase), full-length (human, UniProt Q14680 1-651).
T1 construct: It was detected in formalin-fixed paraffin sections (IHC) or in RIPA lysates after SDS-PAGE (western blot); MELK is an intracellular kinase, so 'on cells' here means in cells or sections; also called full-length MELK protein; endogenous MELK protein
T1 sequence (Q14680 whole entry): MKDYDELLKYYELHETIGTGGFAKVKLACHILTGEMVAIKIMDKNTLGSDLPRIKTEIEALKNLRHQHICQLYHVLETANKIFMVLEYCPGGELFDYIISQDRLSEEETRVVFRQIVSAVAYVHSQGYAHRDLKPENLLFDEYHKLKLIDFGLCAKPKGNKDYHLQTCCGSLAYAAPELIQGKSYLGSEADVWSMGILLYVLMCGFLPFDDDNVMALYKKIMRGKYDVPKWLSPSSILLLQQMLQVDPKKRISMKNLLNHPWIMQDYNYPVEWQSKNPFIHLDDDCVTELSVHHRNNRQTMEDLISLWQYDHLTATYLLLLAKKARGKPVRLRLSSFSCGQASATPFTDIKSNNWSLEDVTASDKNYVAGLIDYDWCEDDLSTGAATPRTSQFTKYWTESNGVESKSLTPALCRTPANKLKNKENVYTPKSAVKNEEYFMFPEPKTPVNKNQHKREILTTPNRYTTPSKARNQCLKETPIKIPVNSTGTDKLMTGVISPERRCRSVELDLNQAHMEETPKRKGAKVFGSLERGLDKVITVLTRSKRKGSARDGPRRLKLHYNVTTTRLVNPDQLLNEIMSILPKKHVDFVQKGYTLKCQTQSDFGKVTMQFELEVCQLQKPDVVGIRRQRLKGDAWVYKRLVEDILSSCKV
The experiment in a line: immunohistochemical staining of formalin-fixed paraffin sections, MELK/293T vs Mock/293T. On the procedure:
For antigen activation, sections immersed in the antigen-activating solution, pH 9 (Nichirei Biosciences Inc.) were incubated at 125° C. for 30 seconds. After incubation, these were left to stand for 20 minutes at room temperature, and washed for 5 minutes under running water. After immersing them in 3.0% hydrogen peroxide water for 10 minutes to perform blocking of endogenous peroxidase, they were washed with Wash Buffer (TBS-T (Takara Bio)) three times for 5 minutes. Furthermore, with the aim of blocking non-specific reactions, a suitable amount of Protein Block Solution (Dako) was dropped onto the sections and then left to stand for 10 minutes. The primary antibodies (OTSMAb01, MELK(N449)pAb, MELK(HPA017214)pAb) were respectively dropped in suitable amounts within a humid box, left to stand for 60 minutes, and then washed with the Wash Buffer three times for 5 minutes. Histofine Simple Stain MAX PO (Nichirei Biosciences Inc.) was dropped in suitable amounts as the secondary antibody in a humid box, and left to stand for 30 minutes. These were then washed with the Wash Buffer three times for 5 minutes. The chromogenic reaction was done using the DAB substrate solution (Nichirei Biosciences Inc.). The slide sections were immersed for 20 seconds in haematoxylin (Dako), and washed under running water. […]

B1: anti-MELK mouse monoclonal antibody clone OTSMAb01 (antibody, V domains shown)
VH: EVQLQQSGAELVRPGALVKLSCKASGFNIKDYYMHWVKQRPEQGLEWIGWIDPENGNTIYDPKFQGKASVTADTSSNTAYLQLSSLTSEDTAVYYCTSHHYSAMDYWGQGTSVTVSS
VL: DVVMTQTPLSLPVSLRDQASISCRSSQSLVHSNGNTYLHWYLQKPGQSPKLLIYKVSNRFSGVPDRFSGSGSGTDFTLIISRVEAEDLGVYFCSQSTYVPLTFGAGTKLELKR
notes: Mouse monoclonal antibody from a hybridoma (Balb/c splenocytes x SP2/0), purified from culture solution on a Protein A column; also called anti-MELK antibody (OTSMAb01); hybridoma clone OTSMAb01
As for B1, the binding result is listed as “binds”.
